Experimental data taken from publication PMC12785156, “Hydroxylation of HPPD facilitates its PUB11-mediated ubiquitination and degradation in response to oxidative stress in Arabidopsis” (Plant Communications, 2025).

B1: His-AtHPPD (Arabidopsis thaliana 4-hydroxyphenylpyruvate dioxygenase) (enzyme, UniProt P93836 1-445, looked up)
chain: MGHQNAAVSENQNHDDGAASSPGFKLVGFSKFVRKNPKSDKFKVKRFHHIEFWCGDATNVARRFSWGLGMRFSAKSDLSTGNMVHASYLLTSGDLRFLFTAPYSPSLSAGEIKPTTTASIPSFDHGSCRSFFSSHGLGVRAVAIEVEDAESAFSISVANGAIPSSPPIVLNEAVTIAEVKLYGDVVLRYVSYKAEDTEKSEFLPGFERVEDASSFPLDYGIRRLDHAVGNVPELGPALTYVAGFTGFHQFAEFTADDVGTAESGLNSAVLASNDEMVLLPINEPVHGTKRKSQIQTYLEHNEGAGLQHLALMSEDIFRTLREMRKRSSIGGFDFMPSPPPTYYQNLKKRVGDVLSDDQIKECEELGILVDRDDQGTLLQIFTKPLGDRPTIFIEIIQRVGCMMKDEEGKAYQSGGCGGFGKGNFSELFKSIEEYEKTLEAKQLVG
notes: 4-hydroxyphenylpyruvate dioxygenase (AtHPPD), Arabidopsis thaliana, full-length CDS in pET-15b; For MST the His tag was labelled with RED-tris-NTA 2nd generation dye; A low level of self-hydroxylation of phenylalanines is reported also for the untreated protein; also called AtHPPD-WT; His-labeled AtHPPD; source: E. coli BL21(DE3), purified; not shown: His6, N-terminal, kept

Assays:
[1] = target: B1; test: MST; His-AtHPPD (or mutants) labelled with RED-tris-NTA 2nd generation, constant 400 nM; GST-PUB11-ARM serially diluted; 25°C; 20 mM HEPES pH 8.0, 100 mM NaCl; three repeats; details: both partners purified
full-length MBP-PUB11 = target: T1, full-length MBP-PUB11 (Arabidopsis thaliana, UniProt Q8GUG9 1-612); test: pull-down; purified MBP-PUB11 full length or truncated variants (or MBP alone) with purified His-AtHPPD, 4°C; immunoblot with anti-His and anti-MBP; details: both partners purified
T1 construct: U-box E3 ubiquitin ligase PUB11, Arabidopsis thaliana, full-length CDS in pMAL-C2x; not shown: MBP, N-terminal, kept
T1 sequence (looked up): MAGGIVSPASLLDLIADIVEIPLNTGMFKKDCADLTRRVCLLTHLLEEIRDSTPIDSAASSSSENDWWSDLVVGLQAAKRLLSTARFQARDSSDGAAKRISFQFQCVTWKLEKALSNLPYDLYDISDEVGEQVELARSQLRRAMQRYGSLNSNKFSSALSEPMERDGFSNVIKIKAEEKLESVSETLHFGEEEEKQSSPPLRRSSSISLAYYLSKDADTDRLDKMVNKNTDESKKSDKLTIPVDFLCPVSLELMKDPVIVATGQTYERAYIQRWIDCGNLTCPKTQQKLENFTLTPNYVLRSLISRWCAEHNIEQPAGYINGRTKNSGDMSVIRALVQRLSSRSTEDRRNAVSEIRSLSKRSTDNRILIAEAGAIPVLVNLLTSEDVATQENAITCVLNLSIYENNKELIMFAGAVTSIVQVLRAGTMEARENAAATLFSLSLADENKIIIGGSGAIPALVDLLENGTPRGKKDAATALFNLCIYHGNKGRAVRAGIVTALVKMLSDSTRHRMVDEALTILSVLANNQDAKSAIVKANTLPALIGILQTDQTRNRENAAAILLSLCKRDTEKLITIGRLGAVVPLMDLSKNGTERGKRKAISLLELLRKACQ

Row | Binder | Kd [1] | binding result (full-length MBP-PUB11)
1 | GST-PUB11-ARM (domain or fragment, GST carrier omitted. Limits not printed: ARM region taken as everything after the U-box (240-314) to the C-terminus) QPAGYINGRTKNSGDMSVIRALVQRLSSRSTEDRRNAVSEIRSLSKRSTDNRILIAEAGAIPVLVNLLTSEDVATQENAITCVLNLSIYENNKELIMFAGAVTSIVQVLRAGTMEARENAAATLFSLSLADENKIIIGGSGAIPALVDLLENGTPRGKKDAATALFNLCIYHGNKGRAVRAGIVTALVKMLSDSTRHRMVDEALTILSVLANNQDAKSAIVKANTLPALIGILQTDQTRNRENAAAILLSLCKRDTEKLITIGRLGAVVPLMDLSKNGTERGKRKAISLLELLRKACQ | 7.42 µM | 
2 | B1 |  | binds
